First the molecules themselves.
B1: H183/L072 VH H35I (antibody, name in Kabat numbering, V domains shown)
VH: QVQLVESGGGLVQPGRSLRLSCAASGFTFSNAWMIWVRQAPGKGLEWVAQIKDKGNAYAAYYAPSVKGRFTISRDDSKNSIYLQMNSLKTEDTAVYYCHYVHYASASTVLPAFGVDAWGQGTTVTVSS
VL: DIVMTQSPLSLPVTPGEPASISCQASQELVHMNRNTYLHWYQQKPGQAPRLLIYKVSNRFPGVPDRFSGSGSGTDFTLKISRVEAEDVGVYYCAQGTSVPFTFGQGTKLEIK
B2: H183/L072 VH H35M (antibody, name in Kabat numbering, V domains shown)
VH: QVQLVESGGGLVQPGRSLRLSCAASGFTFSNAWMMWVRQAPGKGLEWVAQIKDKGNAYAAYYAPSVKGRFTISRDDSKNSIYLQMNSLKTEDTAVYYCHYVHYASASTVLPAFGVDAWGQGTTVTVSS
VL: DIVMTQSPLSLPVTPGEPASISCQASQELVHMNRNTYLHWYQQKPGQAPRLLIYKVSNRFPGVPDRFSGSGSGTDFTLKISRVEAEDVGVYYCAQGTSVPFTFGQGTKLEIK
B3: H183/L072 VH D52aM (antibody, name in Kabat numbering, V domains shown)
VH: QVQLVESGGGLVQPGRSLRLSCAASGFTFSNAWMHWVRQAPGKGLEWVAQIKMKGNAYAAYYAPSVKGRFTISRDDSKNSIYLQMNSLKTEDTAVYYCHYVHYASASTVLPAFGVDAWGQGTTVTVSS
VL: DIVMTQSPLSLPVTPGEPASISCQASQELVHMNRNTYLHWYQQKPGQAPRLLIYKVSNRFPGVPDRFSGSGSGTDFTLKISRVEAEDVGVYYCAQGTSVPFTFGQGTKLEIK
B4: H183/L072 VH N53I (antibody, name in Kabat numbering, V domains shown)
VH: QVQLVESGGGLVQPGRSLRLSCAASGFTFSNAWMHWVRQAPGKGLEWVAQIKDKGIAYAAYYAPSVKGRFTISRDDSKNSIYLQMNSLKTEDTAVYYCHYVHYASASTVLPAFGVDAWGQGTTVTVSS
VL: DIVMTQSPLSLPVTPGEPASISCQASQELVHMNRNTYLHWYQQKPGQAPRLLIYKVSNRFPGVPDRFSGSGSGTDFTLKISRVEAEDVGVYYCAQGTSVPFTFGQGTKLEIK
B5: H183/L072 VH Q50P (antibody, name in Kabat numbering, V domains shown)
VH: QVQLVESGGGLVQPGRSLRLSCAASGFTFSNAWMHWVRQAPGKGLEWVAPIKDKGNAYAAYYAPSVKGRFTISRDDSKNSIYLQMNSLKTEDTAVYYCHYVHYASASTVLPAFGVDAWGQGTTVTVSS
VL: DIVMTQSPLSLPVTPGEPASISCQASQELVHMNRNTYLHWYQQKPGQAPRLLIYKVSNRFPGVPDRFSGSGSGTDFTLKISRVEAEDVGVYYCAQGTSVPFTFGQGTKLEIK
B6: H183/L072 VH A32P (antibody, name in Kabat numbering, V domains shown)
VH: QVQLVESGGGLVQPGRSLRLSCAASGFTFSNPWMHWVRQAPGKGLEWVAQIKDKGNAYAAYYAPSVKGRFTISRDDSKNSIYLQMNSLKTEDTAVYYCHYVHYASASTVLPAFGVDAWGQGTTVTVSS
VL: DIVMTQSPLSLPVTPGEPASISCQASQELVHMNRNTYLHWYQQKPGQAPRLLIYKVSNRFPGVPDRFSGSGSGTDFTLKISRVEAEDVGVYYCAQGTSVPFTFGQGTKLEIK
B7: H183/L072 VH Y55I (antibody, name in Kabat numbering, V domains shown)
VH: QVQLVESGGGLVQPGRSLRLSCAASGFTFSNAWMHWVRQAPGKGLEWVAQIKDKGNAIAAYYAPSVKGRFTISRDDSKNSIYLQMNSLKTEDTAVYYCHYVHYASASTVLPAFGVDAWGQGTTVTVSS
VL: DIVMTQSPLSLPVTPGEPASISCQASQELVHMNRNTYLHWYQQKPGQAPRLLIYKVSNRFPGVPDRFSGSGSGTDFTLKISRVEAEDVGVYYCAQGTSVPFTFGQGTKLEIK
B8: H183/L072 VH N31M (antibody, name in Kabat numbering, V domains shown)
VH: QVQLVESGGGLVQPGRSLRLSCAASGFTFSMAWMHWVRQAPGKGLEWVAQIKDKGNAYAAYYAPSVKGRFTISRDDSKNSIYLQMNSLKTEDTAVYYCHYVHYASASTVLPAFGVDAWGQGTTVTVSS
VL: DIVMTQSPLSLPVTPGEPASISCQASQELVHMNRNTYLHWYQQKPGQAPRLLIYKVSNRFPGVPDRFSGSGSGTDFTLKISRVEAEDVGVYYCAQGTSVPFTFGQGTKLEIK
B9: H183/L072 VH A57L (antibody, name in Kabat numbering, V domains shown)
VH: QVQLVESGGGLVQPGRSLRLSCAASGFTFSNAWMHWVRQAPGKGLEWVAQIKDKGNAYALYYAPSVKGRFTISRDDSKNSIYLQMNSLKTEDTAVYYCHYVHYASASTVLPAFGVDAWGQGTTVTVSS
VL: DIVMTQSPLSLPVTPGEPASISCQASQELVHMNRNTYLHWYQQKPGQAPRLLIYKVSNRFPGVPDRFSGSGSGTDFTLKISRVEAEDVGVYYCAQGTSVPFTFGQGTKLEIK
B10: H183/L072 VH H35P (antibody, name in Kabat numbering, V domains shown)
VH: QVQLVESGGGLVQPGRSLRLSCAASGFTFSNAWMPWVRQAPGKGLEWVAQIKDKGNAYAAYYAPSVKGRFTISRDDSKNSIYLQMNSLKTEDTAVYYCHYVHYASASTVLPAFGVDAWGQGTTVTVSS
VL: DIVMTQSPLSLPVTPGEPASISCQASQELVHMNRNTYLHWYQQKPGQAPRLLIYKVSNRFPGVPDRFSGSGSGTDFTLKISRVEAEDVGVYYCAQGTSVPFTFGQGTKLEIK
B11: H183/L072 VH W33M (antibody, name in Kabat numbering, V domains shown)
VH: QVQLVESGGGLVQPGRSLRLSCAASGFTFSNAMMHWVRQAPGKGLEWVAQIKDKGNAYAAYYAPSVKGRFTISRDDSKNSIYLQMNSLKTEDTAVYYCHYVHYASASTVLPAFGVDAWGQGTTVTVSS
VL: DIVMTQSPLSLPVTPGEPASISCQASQELVHMNRNTYLHWYQQKPGQAPRLLIYKVSNRFPGVPDRFSGSGSGTDFTLKISRVEAEDVGVYYCAQGTSVPFTFGQGTKLEIK
B12: H183/L072 VH K52P (antibody, name in Kabat numbering, V domains shown)
VH: QVQLVESGGGLVQPGRSLRLSCAASGFTFSNAWMHWVRQAPGKGLEWVAQIPDKGNAYAAYYAPSVKGRFTISRDDSKNSIYLQMNSLKTEDTAVYYCHYVHYASASTVLPAFGVDAWGQGTTVTVSS
VL: DIVMTQSPLSLPVTPGEPASISCQASQELVHMNRNTYLHWYQQKPGQAPRLLIYKVSNRFPGVPDRFSGSGSGTDFTLKISRVEAEDVGVYYCAQGTSVPFTFGQGTKLEIK
B13: H183/L072 VH N53M (antibody, name in Kabat numbering, V domains shown)
VH: QVQLVESGGGLVQPGRSLRLSCAASGFTFSNAWMHWVRQAPGKGLEWVAQIKDKGMAYAAYYAPSVKGRFTISRDDSKNSIYLQMNSLKTEDTAVYYCHYVHYASASTVLPAFGVDAWGQGTTVTVSS
VL: DIVMTQSPLSLPVTPGEPASISCQASQELVHMNRNTYLHWYQQKPGQAPRLLIYKVSNRFPGVPDRFSGSGSGTDFTLKISRVEAEDVGVYYCAQGTSVPFTFGQGTKLEIK
B14: H183/L072 VH W33P (antibody, name in Kabat numbering, V domains shown)
VH: QVQLVESGGGLVQPGRSLRLSCAASGFTFSNAPMHWVRQAPGKGLEWVAQIKDKGNAYAAYYAPSVKGRFTISRDDSKNSIYLQMNSLKTEDTAVYYCHYVHYASASTVLPAFGVDAWGQGTTVTVSS
VL: DIVMTQSPLSLPVTPGEPASISCQASQELVHMNRNTYLHWYQQKPGQAPRLLIYKVSNRFPGVPDRFSGSGSGTDFTLKISRVEAEDVGVYYCAQGTSVPFTFGQGTKLEIK
B15: H183/L072 VH K52I (antibody, name in Kabat numbering, V domains shown)
VH: QVQLVESGGGLVQPGRSLRLSCAASGFTFSNAWMHWVRQAPGKGLEWVAQIIDKGNAYAAYYAPSVKGRFTISRDDSKNSIYLQMNSLKTEDTAVYYCHYVHYASASTVLPAFGVDAWGQGTTVTVSS
VL: DIVMTQSPLSLPVTPGEPASISCQASQELVHMNRNTYLHWYQQKPGQAPRLLIYKVSNRFPGVPDRFSGSGSGTDFTLKISRVEAEDVGVYYCAQGTSVPFTFGQGTKLEIK
B16: H183/L072 VH H35L (antibody, name in Kabat numbering, V domains shown)
VH: QVQLVESGGGLVQPGRSLRLSCAASGFTFSNAWMLWVRQAPGKGLEWVAQIKDKGNAYAAYYAPSVKGRFTISRDDSKNSIYLQMNSLKTEDTAVYYCHYVHYASASTVLPAFGVDAWGQGTTVTVSS
VL: DIVMTQSPLSLPVTPGEPASISCQASQELVHMNRNTYLHWYQQKPGQAPRLLIYKVSNRFPGVPDRFSGSGSGTDFTLKISRVEAEDVGVYYCAQGTSVPFTFGQGTKLEIK
B17: H183/L072 VH D52aI (antibody, name in Kabat numbering, V domains shown)
VH: QVQLVESGGGLVQPGRSLRLSCAASGFTFSNAWMHWVRQAPGKGLEWVAQIKIKGNAYAAYYAPSVKGRFTISRDDSKNSIYLQMNSLKTEDTAVYYCHYVHYASASTVLPAFGVDAWGQGTTVTVSS
VL: DIVMTQSPLSLPVTPGEPASISCQASQELVHMNRNTYLHWYQQKPGQAPRLLIYKVSNRFPGVPDRFSGSGSGTDFTLKISRVEAEDVGVYYCAQGTSVPFTFGQGTKLEIK
B18: H183/L072 VH I51P (antibody, name in Kabat numbering, V domains shown)
VH: QVQLVESGGGLVQPGRSLRLSCAASGFTFSNAWMHWVRQAPGKGLEWVAQPKDKGNAYAAYYAPSVKGRFTISRDDSKNSIYLQMNSLKTEDTAVYYCHYVHYASASTVLPAFGVDAWGQGTTVTVSS
VL: DIVMTQSPLSLPVTPGEPASISCQASQELVHMNRNTYLHWYQQKPGQAPRLLIYKVSNRFPGVPDRFSGSGSGTDFTLKISRVEAEDVGVYYCAQGTSVPFTFGQGTKLEIK
B19: H183/L072 VH N53L (antibody, name in Kabat numbering, V domains shown)
VH: QVQLVESGGGLVQPGRSLRLSCAASGFTFSNAWMHWVRQAPGKGLEWVAQIKDKGLAYAAYYAPSVKGRFTISRDDSKNSIYLQMNSLKTEDTAVYYCHYVHYASASTVLPAFGVDAWGQGTTVTVSS
VL: DIVMTQSPLSLPVTPGEPASISCQASQELVHMNRNTYLHWYQQKPGQAPRLLIYKVSNRFPGVPDRFSGSGSGTDFTLKISRVEAEDVGVYYCAQGTSVPFTFGQGTKLEIK
B20: H183/L072 VH D52aL (antibody, name in Kabat numbering, V domains shown)
VH: QVQLVESGGGLVQPGRSLRLSCAASGFTFSNAWMHWVRQAPGKGLEWVAQIKLKGNAYAAYYAPSVKGRFTISRDDSKNSIYLQMNSLKTEDTAVYYCHYVHYASASTVLPAFGVDAWGQGTTVTVSS
VL: DIVMTQSPLSLPVTPGEPASISCQASQELVHMNRNTYLHWYQQKPGQAPRLLIYKVSNRFPGVPDRFSGSGSGTDFTLKISRVEAEDVGVYYCAQGTSVPFTFGQGTKLEIK

The target in the assay is Human CD137 ECD (human). The assay can be described thus: single mutant vs template dBBDu183H.
Chain of Human CD137 ECD (human) (chain, as listed by the source limits assumed): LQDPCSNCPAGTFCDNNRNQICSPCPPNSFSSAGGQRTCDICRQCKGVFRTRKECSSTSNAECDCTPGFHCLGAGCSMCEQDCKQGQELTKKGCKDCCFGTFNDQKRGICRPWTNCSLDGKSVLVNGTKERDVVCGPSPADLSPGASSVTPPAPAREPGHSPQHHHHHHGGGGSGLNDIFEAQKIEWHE
Take B1: the fold change of affinity turned out to be 0 fold.

For the molecule B2, the fold change of affinity came to 0 fold.

B3: the fold change of affinity is 0 fold.

On to B4, for which the fold change of affinity was determined as 0 fold.

B5: the fold change of affinity was 0 fold.

Regarding B6, the fold change of affinity came out at 0 fold.

Turning to B7, the fold change of affinity amounted to 0 fold.

Turning to B8, the fold change of affinity is 0 fold.

As to B9, the fold change of affinity was determined as 0 fold.

On to B10, for which the fold change of affinity is 0 fold.

B11: the fold change of affinity came to 0 fold.

Regarding B12, the fold change of affinity amounted to 0 fold.

Regarding B13, the fold change of affinity turned out to be 0 fold.

With B14, the fold change of affinity worked out at 0 fold.

Consider B15, for which the fold change of affinity is 0 fold.

With B16, the fold change of affinity was determined as 0 fold.

As to B17, the fold change of affinity worked out at 0 fold.

B18: the fold change of affinity was found to be 0 fold.

With B19, the fold change of affinity is 0 fold.

For the molecule B20, the fold change of affinity was found to be 0 fold.

The values are drawn from patent US20210388087A1.
